Like-named read-outs stand apart in the source and are kept apart here. Blank lines part the entries; values can stand above or below the molecule they belong to.
Assays:
[1] = Biotin-PGE2 ELISA (PGE2-biotinamide binding to captured IgG)
Procedure: Enzyme linked immunosorbent assays to screen for antibodies that bind prostaglandin E2 were performed according to at least one of the two following methods.
ELISA plates (Costar 3369, Corning, N.Y.) were coated with 50 μl of anti-host Fc IgG (Sigma, St. Louis, Mo.) at 2 μg/ml in PBS (Invitrogen Carlsbad, Calif.). Following an overnight incubation at 4° C., washed with PBS and the plate was blocked with 200 μl Superblock (Pierce #37535, Rockford, Ill.). The IgG containing samples were diluted to 1 μg/ml in Assay Buffer (10% Superblock in PBS containing 0.05% Surfactamps (Pierce #37535, Rockford, Ill.) and 50 μl/well added to each well and incubated for 1 hour at room temperature. Plates were washed four times with Tween-Tris Buffered Solution (TTBS). […] The titration curve samples were added to each IgG sample at 50 μl/well and incubated for 1 hour at room temperature. The plates were washed as previously described and 50 μl of 1:5000 dilution of streptavidin polyhrp40 (Fitzgerald Industries, Concord, Mass.) in Assay Buffer was added to each well and incubated for 45 minutes at room temperature. A final wash step was performed and the plates were developed using a single step TMB system (Sigma #T8665, St. Louis, Mo.) and 100 μl/well 2N H2SO4. Plates were read at 450 nm on a Molecular Devices Spectramax plate reader (Sunnyvale, Calif.). EC50 was determined using GraphPad Prism 5 (GraphPad Software, La Jolla, Calif.).

[2] = Biotin-PGE2 competition ELISA (prostaglandin selectivity); format: binding
Procedure: Competition enzyme linked immunosorbent assays were performed to determine prostaglandin binding specificity for antibodies that bind prostaglandin E2, according to at least one of the two following methods.
ELISA plates (Costar 3369, Corning, N.Y.) were coated with 50 μl/well of anti-host Fc IgG (Sigma, St. Louis, Mo.) at 2 μg/ml in PBS (Invitrogen, Carlsbad, Calif.). Following an overnight incubation at 4° C., the plate was blocked with 200 μl Superblock (Pierce #37535, Rockford, Ill.). The IgG samples were diluted to 6 μg/ml in Assay Buffer (10% Superblock in PBS containing 0.05% Surfactamps (Pierce #37535, Rockford, Ill.). The PGE2-biotinamide was diluted to 3 nM in Assay Buffer. A titration curve in Assay Buffer was prepared for the prostaglandins PGA2 (Cayman Chemicals, Ann Arbor, Mich.), PGD2 (Cayman Chemicals, Ann Arbor, Mich.) and PGE2 (Cayman Chemicals, Ann Arbor, Mich.) starting at 300 nM by a 1:10 serial dilution. The reagents were added to tubes at a volume of 50 μl each/tube and preincubated for 1 hour at room temperature. Following the preincubation, the mix was transferred to the blocked plates and allowed to incubate for 1 hour at room temperature. Next, the plates were washed four times with Tween 20-Tris buffered solution (TTBS). Streptavidin polyhrp40 in Assay Buffer (Fitzgerald Industries, Concord, Mass.) at a 1:5000 dilution was then added to the wells and incubated for 45 minutes at room temperature. A final wash step was performed and the plates were developed using a single step TMB system (Sigma #T8665, Sigma, St. Louis, Mo.) and 100 μl/well 2N H2SO4. Plates were read at 450 nm on a Molecular Devices Spectramax plate reader (Sunnyvale, Calif.). […] IC50 number was determined using GraphPad Prism 5 (GraphPad Software, La Jolla, Calif.). The cross reactivity index was then calculated by IC50 of PGE2/IC50 of other prostaglandin(s).

[3] = system: PGE2 induced Ca++ influx in HEK293 Gα16 cells stably transfected with human EP4 receptor; test: EP4 bioassay: PGE2 induced Ca++ flux (FLIPR); format: cell-based; conditions: PGE2 25 pm; read-out: IC50 (pM) @ PGE2 25 pm Cellular Potency in EP4 assay
Procedure: The ability of anti-PGE2 antibody to inhibit cellular response of PGE2 in vitro was determined in a Ca^++ flux assay in HEK293 Gα16 cells (Abbott Bioresearch Center, Worcester, Mass.) stably transfected with human EP4 receptor. In brief, an expression plasmid encoding one of the four human PGE2 receptors, EP4, and an expression plasmid encoding Gα16, were co-transfected into human embryonic kidney cell line 293 cells (ATCC# CRL1573, Manassas, Va.). The stable clones co-expressing both human EP4 and Gα16 protein were selected using standard methods (Joseph Sambrook and David W. Russell. Molecular Cloning: A Laboratory Manual Publisher. Published by Cold Spring Harbor Laboratory Press, 2001) and used for the EP4 bioassay. The HEK293 Gα16 cells were plated in black/clear poly-D-lysine plates (Corning #3667, Corning, N.Y.) and incubated with a Ca^++-sensitive dye (Molecular Devices, Sunnyvale, Calif.) for 90 minutes. Stock PGE2 (in 200 proof ethanol) was diluted with FLIPR buffer [containing 1×HBSS (Invitrogen Carlsbad, Calif.), 20 mM HEPES (Invitrogen Carlsbad, Calif.), 0.1% BSA (Sigma, St. Louis, Mo.) and 2.5 mM Probenecid (Sigma, St. Louis, Mo.)]. Anti-PGE2 antibodies or isotype matched control antibodies were also pre-diluted in FLIPR buffer. 25 μl of PGE2 or pre-incubated PGE2/antibody mixture was added to the wells pre-plated with cells. The dose response of PGE2 was determined on a serial titration of PGE2 and using FLIPR1 or Tetra (Molecular Devices, Sunnyvale, Calif.) and EC50 was determined using GraphPad Prism 5 (GraphPad Software, La Jolla, Calif.). […] Ca^++ flux was monitored using FLIPR1 and data was analyzed using GraphPad Prism 5 (GraphPad Software, La Jolla, Calif.).

[4] = Capillary zone electrophoresis; format: physicochemical; conditions: running buffer pH 5.5; compared with Hu2B5.2, Hu2B5.4, Hu2B5.6, Hu2B5.8
Excerpt: Capillary zone electrophoresis is a capillary electrophoresis method in which the capillary is filled with buffer and the separation mechanism is based on differences in electrophoretic mobility of the analyte through the buffer. The electrophoretic mobility of a molecule is related to the charge-to-size ratio. A Beckman-Coulter ProteomeLab PA 800 (Beckman Coulter, Fullerton, Calif.) was used for the CZE analysis. A neutral capillary (eCAP neutral, 56 cm total length, 50 μm I. D. Beckman-Coulter, P/N 477441, Fullerton, Calif.) was used. The method used a 30.2 cm capillary with a detection window 20.2 cm from the sample introduction inlet. The running buffer was 100 mM EACA (6-Aminocaproic acid, Sigma A7824-100 G, St. Louis, Mo.) with 0.1% MC (from 1% Methylcellulose solution, Convergent Bioscience, cat# 101876, Toronto, ON, Canada), pH 5.5.

[5] = Biotin-PGE2 ELISA (PGE2-biotinamide binding to captured IgG); remark: listed apart in the source

- Binding to PGE2-Biotinamide (OD450) ([1]; Biotin-PGE2 0 μM): 0.08
- Binding to PGE2-Biotinamide (OD450) ([1]; Biotin-PGE2 0.1 μM): 0.10
- Binding to PGE2-Biotinamide (OD450) ([1]; Biotin-PGE2 0.3 μM): 0.16
- Binding to PGE2-Biotinamide (OD450) ([1]; Biotin-PGE2 1 μM): 0.25
- Binding to PGE2-Biotinamide (OD450) ([1]; Biotin-PGE2 2 μM): 0.32
- Binding to PGE2-Biotinamide (OD450) ([1]; Biotin-PGE2 5 μM): 0.31
- Binding to PGE2-Biotinamide (OD450) ([1]; Biotin-PGE2 15 μM): 0.41
- Binding to PGE2-Biotinamide (OD450) ([1]; Biotin-PGE2 45 μM, IgG-containing COS7 media): 0.46
B1: L21: human anti-PGE2 antibody from PROfusion mRNA display; VH SEQ ID NO 33, VL SEQ ID NO 36 (antibody, V domains shown)
VH: EVQLVQSGSELKKPGTSVKVSCKASGYTLTTYAMNWVRQAPGQGLEWMGWIGTSTGNPTYAQGFTGRFVFSLDTSVNTAHLQIYSLKAEDTALYYCARSSLTRPADYWGQGTLVTVSS
VL: QSGLTQPPSVSGAPGQRVTISCFGSSSNIGAGYDVHWYQQLPGAAPKLLIFGNNNRPSGVPDRFSGSKSGTSASLAITGLQAEDEADYYCQSCDSSLSGAVFGTGTKVTVL

- EC50 [1]: 2.46 nM
- ability to bind PGE2 in ELISA [1]: potently bound to PGE2
B2: 2B5-7.0: recombinant anti-PGE2 antibody from solved 2B5 sequence; VH SEQ ID NO 40, VL SEQ ID NO 41 (antibody, V domains shown)
VH: QVQLQQSGPELVRPGSSVKISCKASGYTFTKYWLGWVKQRPGHGLEWIGDIYPGYDYTHYNEKFKDKATLTVDTSSSTAYMQLSSLTSEDSAVYFCARSDGSSTYWGQGTLVTVSA
VL: DVLMTQTPLSLPVSLGDQASISCTSSQNIVHSNGNTYLEWYLQRPGQSPKLLIYKVSNRFSGVPDRFSGSGSGTVFTLKISRVEAEDLGVYYCFQVSHVPYTFGGGTKLEIKR
- PG Selectivity in Biotin-PGE2 Competition ELISA (CRI %) PGA2 [2]: 0.11%
- PG Selectivity in Biotin-PGE2 Competition ELISA (CRI %) PGD2 [2]: <0.01%
- PG Selectivity in Biotin-PGE2 Competition ELISA (CRI %) PGE1 [2]: 27%

- EC50 [1]: 3.04 nM
- ability to bind PGE2 in ELISA [1]: potently bound to PGE2
B3: 2B5-9.0: recombinant anti-PGE2 antibody from solved 2B5 sequence; VH SEQ ID NO 44, VL SEQ ID NO 45 (antibody, V domains shown)
VH: QVQLQQSGPELVRPGSSVKISCKASGYTFTKYWLGWVKQRPGHGLEWIGDIYPYGDYTHYNEKFKDKATLTVDTSSSTAYMQLSSLTSEDSAVYFCARSDGSSTYWGQGTLVTVSA
VL: DVLMTQTPLSLPVSLGDQASISCTSSQNIVHSNGNTYLEWYLQRPGQSPKLLIYKVSNRFSGVPDRFSGSGSGTVFTLKISRVEAEDLGVYYCFQVSHVPYTFGGGTKLEIKR
- PG Selectivity in Biotin-PGE2 Competition ELISA (CRI %) PGA2 [2]: 0.24%
- PG Selectivity in Biotin-PGE2 Competition ELISA (CRI %) PGD2 [2]: <0.01%
- PG Selectivity in Biotin-PGE2 Competition ELISA (CRI %) PGE1 [2]: 23%

- EC50 [5]: 37 pM
B4: Hu2B5.5: humanized 2B5-8.0; VH SEQ ID NO 68, VL SEQ ID NO 69 (antibody, V domains shown)
VH: EVQLVQSGAEVKKPGASVKVSCKASGYTFTKYWLGWVRQAPGQGLEWMGDIYPGYDYTHYNEKFKDRVTLTTDTSTSTAYMELRSLRSDDTAVYYCARSDGSSTYWGQGTLVTVSS
VL: DVVMTQTPLSLPVTPGEPASISCTSSQNIVHSNGNTYLEWYLQKPGQSPQLLIYKVSNRFSGVPDRFSGSGSGTDFTLKISRVEAEDVGVYYCFQVSHVPYTFGGGTKVEIKR
- IC50 [3]: 47 pM
- migration in capillary zone electrophoresis [4]: migrated more basic

Reference: patent US8624002B2, “Prostaglandin E2 binding proteins and uses thereof” (AbbVie, Inc., priority 2008, dated 2014)
